Assay [1] concerns the target PepTSt wild type, proton-dependent oligopeptide transporter from Streptococcus thermophilus (Streptococcus thermophilus) (UniProt Q5M4H8). Nature of the assay: MST; label-free (intrinsic tryptophan fluorescence of PepTSt); 125 nM PepTSt constant, peptide titrated up to the millimolar range; 22°C; pH 7.5, 100 mM Tris-HCl, 150 mM NaCl, 0.03% DDM.
Assay [2] has the same target. Nature of the assay: MST; label-free (intrinsic tryptophan fluorescence of PepTSt); 125 nM PepTSt constant, peptide titrated; 22°C; pH 4.5, 100 mM citrate, 150 mM NaCl, 0.03% DDM.
For assay [3] the target is unchanged. Nature of the assay: MST; label-free (intrinsic tryptophan fluorescence of PepTSt); 125 nM PepTSt constant, peptide titrated up to the millimolar range; 22°C; pH 7.5, 100 mM HEPES, 150 mM NaCl, 0.03% DDM.
The target is the same in assay [4]. Nature of the assay: MST; label-free (intrinsic tryptophan fluorescence of PepTSt); 125 nM PepTSt constant, peptide titrated; 22°C; pH 5.5, 100 mM citrate, 150 mM NaCl, 0.03% DDM.
The target is the same in assay [5]. Nature of the assay: MST; label-free (intrinsic tryptophan fluorescence of PepTSt); 125 nM PepTSt constant, peptide titrated; 22°C; pH 5.0, 100 mM citrate, 150 mM NaCl, 0.03% DDM.
Assay [6] has the same target. Nature of the assay: MST; label-free (intrinsic tryptophan fluorescence of PepTSt); 125 nM PepTSt constant, peptide titrated up to the millimolar range; 22°C; pH 7.5, 100 mM NaPi, 150 mM NaCl, 0.03% DDM.

The source of these data is article PMC5845931.

As a reminder, the Kd is a measure of binding affinity in units of concentration. Read a low Kd as tighter binding. Substance Ala-Ala (peptide) returned a Kd in assay [1] of 8.59 mM.

In turn, Ala-Asp (peptide) showed a Kd in assay [1] of over 100 mM.

As to Ala-Gln (peptide), in assay [1], the equilibrium dissociation constant (Kd) came out at 6.82 mM.

In the case of Ala-Leu (peptide), the Kd in assay [2] was over 50 mM; in assay [3], 0.56 mM.

Ala-Phe (peptide) returned a Kd in assay [1] of 0.95 mM.

Asp-Glu (peptide) registered a dissociation constant (Kd) in assay [1] of over 50 mM.

Turning to Leu-Ala (peptide), the dissociation constant (Kd) in assay [4] is 23 mM; in assay [1], 13.8 mM; in assay [2], over 100 mM; in assay [5] it was 47 mM; in assay [3], 13.3 mM; in assay [6], 9.56 mM.

As to Leu-Leu (peptide), the Kd in assay [1] was 3.56 mM.

For Phe-Ala (peptide), in assay [1], the Kd turned out to be 10.9 mM.
